For three molecules, binding result and Kd results are on record in patent US20190328766, “COMPOSITIONS AND METHODS FOR SUPPRESSING MSUT2” (United States Government As Represented By The Department …, published 2019).

The target of data set [1] is T1, GST-MSUT2 (UniProt Q6PJT7 Q6PJT7:595-719).
T1 sequence: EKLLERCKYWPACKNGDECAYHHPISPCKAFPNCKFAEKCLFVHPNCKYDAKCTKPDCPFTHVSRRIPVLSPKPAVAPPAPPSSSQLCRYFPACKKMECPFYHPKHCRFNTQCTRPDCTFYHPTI
Kind of data set: FP; dose-dependent polarization increase. As to conditions: tags: GST fusion; label: fluorescein (FAM).

Data set [2] has as its target T1, GST-MSUT2. Put plainly: AlphaScreen; 25 mM HEPES, 100 mM NaCl, 0.04% casein, 0.2% Triton X-100, pH 7.4, room temp; inhibited by ebselen. As to conditions: tags: GST fusion; label: 5' TEG-Biotin (IDT). As for the experimental part:
The steps and set up for performing the ALPHA assay for MSUT2 binding to polyA are as follows: [0229] 1. Dilutions are in assay buffer (1×PAMA final concentration). [0230] 2. Scale is for 96 well assay in PE […] ½ area plate (total volume/well is 50 μL). [0231] 3. Assays set up in low light conditions [0232] 4. Add 20 μL of diluted donor bead (10 ug/mL) to well bringing well volume to 20 μL [0233] 5. Add 10 μL diluted biotin RNA (15 nM)) bringing well volume to 30 μL [0234] 6. Add 10 μL diluted GST-MSUT2 Protein (125 nM)) bringing well volume to 40 μL [0235] 7. Incubate at room temp for 30 minutes in the dark [0236] 8. […] 9. Incubate at room temp for 60 minutes in the dark [0238] 10. Read Plate using standard AlphaAssay settings on Perkin Elmer EnSpire® Alpha microplate reader

Data set [3] has as its target T2, PABPN1 (Homo sapiens, UniProt Q86U42 Q86U42:1-306).
T2 sequence: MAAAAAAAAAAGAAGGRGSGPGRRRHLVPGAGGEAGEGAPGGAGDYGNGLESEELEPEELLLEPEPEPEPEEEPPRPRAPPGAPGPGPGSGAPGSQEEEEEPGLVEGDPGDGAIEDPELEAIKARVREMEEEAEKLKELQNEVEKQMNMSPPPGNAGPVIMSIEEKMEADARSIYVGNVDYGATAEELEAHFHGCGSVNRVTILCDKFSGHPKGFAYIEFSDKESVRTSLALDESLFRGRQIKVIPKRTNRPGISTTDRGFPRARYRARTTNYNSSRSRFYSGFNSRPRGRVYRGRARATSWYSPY
Kind of data set: SPR; Biacore T200, biotin capture, from kinetics at 0.6-1 uM protein. To be noted: tags: GST fusion (pGEX6P-1), E. coli BL21(DE3), benzonase treated; label: 5' BiotinTEG. As for the experimental part:
(§1) SPR experiments were conducted on a Biacore T200 using the Biotin Capture Kit Series S following the manufacturer's instructions (GE). Biotin capture reagent was applied to the sensor chip at a flow rate of 2 μl/minute for 300 seconds. 1 nM biotinylated RNA (BiotinTEG-[…]; SEQ ID NO: 25) was captured at a flow rate of 10 μl/minute for 180 seconds. Samples were flowed across the sensor chip at 50 μl/minute for 120 seconds and the chip was regenerated for 120 seconds at a flow rate of 10 μl/minute.

Data set [4] has as its target T3, MSUT2 (ZC3H14) CCCH zinc finger domain (Homo sapiens, UniProt Q6PJT7 Q6PJT7:595-719).
T3 chain: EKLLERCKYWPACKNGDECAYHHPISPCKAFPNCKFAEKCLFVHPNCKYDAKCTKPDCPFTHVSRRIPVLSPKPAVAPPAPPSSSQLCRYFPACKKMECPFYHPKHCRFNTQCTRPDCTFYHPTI
The description is as above. As to conditions: tags: GST fusion (pGEX6P-1), E. coli BL21(DE3), benzonase treated; label: 5' BiotinTEG. The procedure: as §1

In the case of AAAAAAAAAAAAAAA (ssRNA) [FAM-PolyA15], in data set [1], the binding result is recorded as “binds”.
AAAAAAAAAAAAAAAAAAAA (ssRNA) [biotin-poly(A)20]: in data set [2], the binding result is “binds”.
On to AAAAAAAAAAAAAAA (ssRNA) [biotin-poly(A)15], for which the Kd is 237 nM in data set [3] and 60 nM in data set [4].
